Source: publication PMC4846087

Experiments:
GST (27 kDa GST protein) = assay: SEC; Superdex 200 10/300 GL pre-equilibrated with L buffer (40 mM Tris-base, 200 mM NaCl, 1 mM EDTA, 5% glycerol, 5 mM DTT, pH 8.0); eluate of the GST affinity column loaded; molecular weights of the peaks estimated from the column manufacturer's instructions; peaks analysed by SDS-PAGE
[1] = biological target: GST-tagged VirB9-1 (not stated | Anaplasma marginale); assay: as above

Q: For “GST (27 kDa GST protein) (natural protein)”, which stoichiometry N (GST (27 kDa GST protein)) is on record?
A: 2

Q: How did the stoichiometry N [1] turn out when GST-tagged VirB9-1 was run?
A: 2
